Biological target: T1, OC43 spike S2 subunit extracellular domain with T4 foldon (HCoV-OC43)
T1 chain: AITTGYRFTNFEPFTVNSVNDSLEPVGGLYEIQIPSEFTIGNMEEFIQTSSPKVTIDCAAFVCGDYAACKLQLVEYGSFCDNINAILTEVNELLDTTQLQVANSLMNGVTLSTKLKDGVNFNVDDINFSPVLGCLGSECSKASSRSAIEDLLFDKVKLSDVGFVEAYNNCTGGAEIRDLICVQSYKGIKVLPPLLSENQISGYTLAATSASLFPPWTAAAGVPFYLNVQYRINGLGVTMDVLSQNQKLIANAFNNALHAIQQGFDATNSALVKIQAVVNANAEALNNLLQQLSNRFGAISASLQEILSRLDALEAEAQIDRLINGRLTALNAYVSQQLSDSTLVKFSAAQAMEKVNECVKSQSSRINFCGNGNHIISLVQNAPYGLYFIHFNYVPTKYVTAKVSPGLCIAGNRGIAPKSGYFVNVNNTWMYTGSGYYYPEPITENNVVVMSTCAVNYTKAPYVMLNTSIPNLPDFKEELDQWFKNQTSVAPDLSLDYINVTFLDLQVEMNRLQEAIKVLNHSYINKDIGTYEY
Assay: BLI

B1: 1871 Fab (Fab, V domains shown)
VH: EVQLVESGGGLVKPGGSLRLSCVASGFSFSIYSMNWVRQAPGKGLEWVSYISSSSSYKYYADSVKGRFSVSRDNAKNSLYLQLNGLRAEDTAVYYCARDGYCPKGVCTYYGMDVWGQGTTVTVSA
VL: EIVMTQSPATLSVSPGERVTLSCRASQSVRSRLAWFQQKPGQAPRLLIYDASIRATGIPARFSGSGSGTEFTLIISSLQSEDFAVYYCQQYDNWPPAYTFGQGTKLEIK
  Kd: < 1 pM

— publication PMC12724371 (2025)
